Test results taken from patent publication US20260125476A1 (INTERVET, published 2026).
Substitutions are numbered along the chain they refer to. Read-outs that look alike come from different tables or passages of the source. Blank lines part the entries; values can stand above or below the binder they belong to.

Experiments:
[1] = biological target: T1, canine CTLA-4 (cCTLA-4) recombinant protein (canine, UniProt Q9XSI1 38-161, limits assumed); experiment: blocking ELISA: cCTLA-4 coated at 200 ng/well, antibody dilutions mixed with 100 ng/well biotinylated canine CD86 (the blocked ligand), streptavidin-HRP, OD450/540 (Example 4)
T1 construct: also called canine Cytotoxic T-Lymphocyte-Associated protein 4; CD152
T1 chain: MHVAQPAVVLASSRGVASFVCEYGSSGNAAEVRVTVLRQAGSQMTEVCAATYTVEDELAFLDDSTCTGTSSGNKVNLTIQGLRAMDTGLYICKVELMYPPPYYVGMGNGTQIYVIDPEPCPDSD
Procedure: (§1) Coat 200 ng/well cCTLA-4 in an immunoplate and incubate the plate at 4° C. overnight. […] Wash the plate 3 times by PBS with 0.05% Tween 20 (PBST). […] Block the plate with 0.5% BSA in PBS for 45-60 min at room temperature. […] Wash the plate 3 times by PBST. […] Next mixed with the antibodies. […] Transferred the mixture into each column or row of the immunoplate, and incubated the plate for 45-60 min at room temperature. […] Washed the plate 3 times with PBST. […] Added 1:2000 diluted horseradish peroxidase conjugated streptavidin into each well of the plate, and incubated the plate for 45-60 min at room temperature. […] Washed the plate 3 times with PBST. […] Added the TMB Substrate into each well of the plate, and incubated the plate for 10 to 15 minutes at room temperature to allow for color development. […] Added 100 μL of 1.5 M phosphoric acid into each well to stop the reaction. […] Read the plate at 450 nm with 540 nm reference wavelength.

[2] = biological target: T1, canine CTLA-4 (cCTLA-4) recombinant …; experiment: blocking ELISA: cCTLA-4 coated at 200 ng/well, antibody dilutions mixed with 100 ng/well biotinylated canine CD80 (the blocked ligand), streptavidin-HRP, OD450/540 (Example 4)
Procedure: as §1

[3] = biological target: T2, canine CTLA-4 expressed on CHO-K1 cells (canine, UniProt Q9XSI1 38-223); experiment: flow cytometry on CHO-K1 cells stably expressing cCTLA-4, labelled anti-canine IgG, FL4-H histogram (Example 5); antibody concentration not given
T2 construct: also called CHO-cCTLA-4; CHO-K1-cCTLA-4 cells
T2 chain: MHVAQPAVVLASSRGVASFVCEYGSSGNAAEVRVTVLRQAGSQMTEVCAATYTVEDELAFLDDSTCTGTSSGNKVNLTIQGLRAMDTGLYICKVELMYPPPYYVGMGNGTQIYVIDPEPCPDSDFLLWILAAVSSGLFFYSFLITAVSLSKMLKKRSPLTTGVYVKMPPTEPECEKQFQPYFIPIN

[4] = biological target: T1, canine CTLA-4 (cCTLA-4) recombinant …; experiment: ELISA: cCTLA-4 coated at 200 ng/well, three-fold antibody dilutions, HRP anti-canine IgG Fc, OD450/540 (Example 3)
[5] = biological target: T1, canine CTLA-4 (cCTLA-4) recombinant …; experiment: ELISA on coated cCTLA-4, OD450/540 ('xCTLA4 ELISA', Example 7)
[6] = biological target: T2, canine CTLA-4 expressed on CHO-K1 cells; experiment: flow cytometry on CHO-K1 cells stably expressing cCTLA-4, labelled anti-canine IgG, FL4-H histogram (Example 5); antibody concentration not given
[7] = biological target: T2, canine CTLA-4 expressed on CHO-K1 cells; experiment: as above
Source text: (§2) A CHO-K1 cell line stably expressing cCTLA-4 was generated. The cells were used to test antibody binding and blocking activity in FACS flow assay. […] Grew CHO-K1-cCTLA-4 cells in the culture medium in T-75 flask. The cells are passaged when the cell confluency reaches to 90%. […] Detached the cells by Trypsin-EDTA solution, resuspended the cells in culture medium, and counted the viable cells with more than 95% viability. […] Spun down the cells, aspirated the supernatant, then resuspended the cells into FACS buffer (Thermo Fisher Scientific, Cat #BDB554656) to 1×10⁷ cells/mL. […] Added antibody into 100 μL of the cells, incubated at room temperature for 30 min with gentle shaking. […] Washed the cells by 3×250 μL of FACS buffer, and resuspended the cells into 100 μL FACS buffer. […] Stained the cells with FITC conjugated anti-canine IgG, incubated at room temperature for 30 min with gentle shaking. […] Washed the cells with 3×250 μL of FACS buffer and resuspended the cells into 500 μL FACS buffer. […] Read 10,000 cells by flow cytometry.

[8] = biological target: T2, canine CTLA-4 expressed on CHO-K1 cells; experiment: as above
Source text: as §2

IC50 (read off the curve) [1]: ~0.3 µg/mL
IC50 (read off the curve) [2]: ~0.2 µg/mL
binding result [3]: binds
EC50 (read off the curve) [4]: ~0.0007 µg/mL
B1: Mouse-canine chimeric antibody 22A11 (antibody, V domains shown)
VH: QVQLQQPGTELVKPGASVKLSCKASGYTFTSYWMHWVKQRPGQGLEWIGNINPSNGGTRFNEKFKNKATLTEDKSSSTAYMQLSSLTSEDSAVYYCARSNYGSGWAWFAYWGQGTLVTVSA
VL: DIQMNQSPSSLSASLGDTITITCHASQNINVWLSWYQQKPGNIPKLLIYKSSNLHTGVPSRFSGSGSGTGFTLTISSLQPEDIATYYCQQGQSYPWTFGGGTKLEIKR
notes: Mouse variable regions fused to canine constant heavy chain and canine kappa; HEK 293, protein A

EC50 (read off the curve) [5]: ~0.004 µg/mL
B2: Caninized c39A11L3H3 (antibody, V domains shown)
VH: EVKLVESGGDLVKPGGSLRLSCATSGFTFSDYYMSWVRQAPGKALEWMGFIRNKANGYTTEYSASLKGRFTISRDNAKNMLYLQMNSLRAEDTAVYYCVRFGLMYYFDYWGQGTTLTVSS
VL: ENVLTQSPASLSLSPGEKVTITCRASSSVSSSYLHWYQQKPGQSPKLWIFSTSNLASGVPSRFSGSGSGTSYSFTISSLEPEDVAVYYCQQYSGLPLTFGGGTKLELKR
notes: also called caninized 39A11 VL3/VH3

EC50 (read off the curve) [5]: ~0.007 µg/mL
B3: Caninized c39A11L2H3 (antibody, V domains shown)
VH: B2 VH
VL: B2 VL with P15Q, G16E, S44A, S71D
notes: written here as L2H3; also called caninized 39A11

IC50 (read off the curve) [1]: ~0.1 µg/mL
binding result [6]: binds
IC50 (read off the curve) [2]: ~0.2 µg/mL
EC50 (read off the curve) [4]: ~0.002 µg/mL
B4: Mouse-canine chimeric antibody 27G12 (antibody, V domains shown)
VH: QIQLVQSGPELKKPGETVKISCKASGYTFTTYGVSWVKQAPGKGLRWMGWINTYSGMPTYVDDFKGRFAFSLETSASTAFLQINNLKNEDTAIYFCARRGISFDYWGQGTTLTVSS
VL: DVLMTQTPLSLPVSLGDHASISCKSSQSIVYINGNTYLEWYLQKPGQSPKLLIYKVSKRFSGVPDRFSGSGSGTDFTLKISRVEAEDLGVYYCFQGSHVPWTFGGGTKLEIKR
notes: as for B1

binding result [7]: binds
IC50 (read off the curve) [1]: ~0.1 µg/mL
IC50 (read off the curve) [2]: ~0.1 µg/mL
EC50 (read off the curve) [5]: ~0.001 µg/mL
EC50 (read off the curve) [4]: ~0.005 µg/mL
B5: Mouse-canine chimeric antibody 12B3 (antibody, V domains shown)
VH: QIQLVQSGPELKKPGETVKISCKASGYTFTNYGMNWVKQAPGKGLKWMGWINTYTGEPTYADDFKGRFAFSLETSASTAYLQINNLKNEDMATYFCARRSIYYPYWGQGTTLTVSS
VL: B4 VL with H18Q, K24R, I32S, K58N
notes: expressed in HEK 293 cells, purified on protein A; also called chimera of 12B3

IC50 (read off the curve) [1]: ~0.1 µg/mL
IC50 (read off the curve) [2]: ~0.2 µg/mL
EC50 (read off the curve) [4]: ~0.002 µg/mL
B6: Mouse-canine chimeric antibody 45A9 (antibody, V domains shown)
VH: B5 VH with M91T, S100G, I101T, P104R, Y105P
VL: B4 VL with H18Q, K24R, I32S, N33H, L51V, K58N
notes: as for B1

IC50 (read off the curve) [1]: ~0.1 µg/mL
IC50 (read off the curve) [2]: ~0.2 µg/mL
binding result [8]: binds
EC50 (read off the curve) [4]: ~0.002 µg/mL
B7: Mouse-canine chimeric antibody 110E3 (antibody, V domains shown)
VH: B5 VH with F68V, Y80F, M91T, S100G, I101V, Y102R, Y103L, P104D
VL: B4 VL with H18Q, K24R, N33S, N35S, K58S
notes: as for B1

EC50 (read off the curve) [5]: ~0.002 µg/mL
B8: Caninized c12B3L3H3 (antibody, V domains shown)
VH: EIQLVQSGGDLVKPGGSVRLSCKASGYTFTNYGMNWVKQAPGKGLQWMGWINTYTGEPTYADDFKGRFTFSLDNAKNTAYLQINSLRAEDTAVYFCARRSIYYPYWGQGTTLTVSS
VL: DVLMTQTPLSLSVSPGEPASISCRSSQSIVYSNGNTYLEWYLQKPGQSPKLLIYKVSNRFSGVPDRFSGSGSGTDFTLRISRVEADDAGVYYCFQGSHVPWTFGGGTKLELKR
notes: also called caninized 12B3 VL3/VH3

EC50 (read off the curve) [5]: ~0.002 µg/mL
B9: Caninized c12B3L2H3 (antibody, V domains shown)
VH: B8 VH
VL: B8 VL with V2I, L3V, L42Q, L111I
notes: also called caninized 12B3

IC50 (read off the curve) [1]: ~0.1 µg/mL
IC50 (read off the curve) [2]: ~0.2 µg/mL
EC50 (read off the curve) [5]: ~0.004 µg/mL
EC50 (read off the curve) [4]: ~0.009 µg/mL
B10: Mouse-canine chimeric antibody 39A11 (antibody, V domains shown)
VH: EVKLVESGGGLVQPGGSLSLSCATSGFTFSDYYMSWVRQSPGKALEWMGFIRNKANGYTTEYSASLKGRFTISRDNSQSILYLQMNVLRAEDSATYYCVRFGLMYYFDYWGQGTTLTVSS
VL: ENVLIQSPAIMSASPGEKVTMTCRASSSVSSSYLHWYQQKSGASPKLWIFSTSNLASGVPARFSGSGSGTSYSLTINSVEAEDAATYYCQQYSGLPLTFGGGTKLEIKR
notes: Mouse variable regions fused to canine constant heavy chain and canine kappa; HEK 293, protein A; also called chimera of 39A11
